According to PMC10342849, “Feruloyl Esterase (LaFae) from Lactobacillus acidophilus: Structural Insights and Functional Characterization for Application in Ferulic Acid Production” (International Journal of Molecular Sciences, 2023):

Columns and labels:
[1] = biological target: Feruloyl esterase (LaFae) from Lactobacillus acidophilus (Lactobacillus acidophilus); test: AUC; 20 mM Tris-HCl (pH 8.0), ProteomeLab XL-A, sedimentation profile at 280 nm analysed with SEDFIT
[2] = biological target: Feruloyl esterase (LaFae) from Lactobacillus acidophilus (Lactobacillus acidophilus); test: SEC; gel filtration on HiPrep S-200R column in 20 mM Tris-HCl (pH 8.0), molecular weight from a standard curve of protein standards
purified protein = substrate: CCCC(=O)Oc1ccc([N+](=O)[O-])cc1; test: purified protein; format: biochemical, Lactobacillus acidophilus; details: hydrolysis; His6-tagged enzyme

Row | Molecule | percent of the sample in the dimer peak [1] [%] | stoichiometry N [1] | stoichiometry N [2] | Km (purified protein) [µM]
1 | Feruloyl esterase (LaFae) from Lactobacillus acidophilus (enzyme) | 95.3 | 2 | 2 | 
2 | LaFae (Lactobacillus acidophilus NCFM) (protein, His6-tagged, pET-21a (BamHI/XhoI), E. coli BL21(DE3); dimer in solution; catalytic triad Ser106, Asp197, His225) MSRITIERDGLTLVGDREEPFGEIYDMAILMHGFTANRNTPLLRQIADNLRDENVASVRFDFNGHGESDGAFEDMTVCNEIADAQKILEYVRTDPHVRNIFLVGHSQGGVVASMLAGLYPDIVKKVVLLAPAAQLKDDALNGDTQGATYNPEHIPAAIPFHGKKLGGFYLRTAQVLPIYEIAKHYTNPVSIIVGSNDQVVAPKYSKKYDEVYENSELHMVPDADHSFTGQYKDSAVDLTAEFLKPLF |  |  |  | 1160
